Test results from the supplement of paper PMC10126150.
± gives the standard deviation of the averaged measurements.

Tested on: ATP
Assay: switch fluorescence ratio, 500 uM ATP over buffer (Cy3 cluster intensity, sum of 5 cycles each) (fold (ratio)); higher = stronger signal-on switching upon ATP binding; sequences stand for … in TCGTCGGCAGCGTCAGATGTGTATAAGAGACAGTTTTTTTTTTTTTTTTTTTTTTTTT…TC
Settings: aptamer strand: ATP DNA aptamer (quencher-CACCTGGGGGAGTATTGCGGAGGAAGG + anchor), 100 nM annealed; ATP concentration: 500 uM
Method in brief: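 Values give the fluorescence ratio for each switch-domain sequence, averaged from per-cluster ratios of summed target-cycle to summed buffer-cycle Cy3 intensity. The Cy3-labelled switching-strand clusters sat on a modified Illumina MiSeq flow-cell, were annealed to 100 nM quencher-labelled ATP aptamer, and were imaged in selection buffer, then after 15 min with 500 uM ATP at 22 °C. Five cycles ran with NaOH stripping and re-annealing between them, and clusters outside 100-1000 RFU were excluded.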
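Also: ATP exposure 15 min at 22 °C before imaging.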

Point of comparison: TGGTGGGGGG, switch fluorescence ratio 0.997 ± 0.037. Against it:
- TGGTCAACTA — within error, 1 ± 0.02
- TGGTCAGCTA — within error, 1.02 ± 0.025
- TGGTCCATGG — within error, 1.008 ± 0.007
- TGGTCCATTT — within error, 1.014 ± 0.0091
- TGGTCCCGGA — within error, 1 ± 0.017
- TGGTCGGGGT — within error, 1.01 ± 0.013
- TGGTCGTCTT — within error, 1.05 ± 0.035
- TGGTCTATTT — within error, 0.965 ± 0.019
- TGGTCTCTAA — within error, 0.98 ± 0.01
- TGGTCTTCCA — within error, 1.04 ± 0.013
- TGGTGAATTT — within error, 1.016 ± 0.0067
- TGGTGAGGCT — within error, 0.9694 ± 0.0037
- TGGTGGCGGT — within error, 1.01 ± 0.075
- TGGTGGGAGG — within error, 1 ± 0.015
- TGGTGGGGAG — within error, 1.01 ± 0.045
- TGGTGGGGTG — within error, 0.986 ± 0.012
- TGGTGGTGGC — within error, 0.981 ± 0.0072
- TGGTGTCTAT — within error, 1.007 ± 0.0087
- TGGTGTGACA — within error, 0.995 ± 0.065
- TGGTGTTGGG — within error, 0.983 ± 0.015
- TGGTGTTTTG — within error, 0.999 ± 0.031
- TGGTTAAATC — within error, 1.03 ± 0.019
- TGGTTACGGG — within error, 0.993 ± 0.012
- TGGTTATGTA — within error, 1 ± 0.014
- TGGTTCAAGT — within error, 0.984 ± 0.011
- TGGTTGAATA — within error, 0.998 ± 0.05
- TGGTTGCAGG — within error, 1.05 ± 0.042
- TGGTTGGCGT — within error, 1.04 ± 0.066
- TGGTTGGTGT — higher, 1.06 ± 0.015
- TGGTTGTGGG — within error, 0.996 ± 0.028
- TGGTTTAGTG — within error, 0.976 ± 0.031
- TGGTTTCCTT — within error, 0.955 ± 0.025
- TGGTTTCGTG — within error, 1.01 ± 0.023
- TGGTTTGGAA — within error, 0.998 ± 0.05
- TGGTTTGGGA — within error, 1 ± 0.029
- TGGTTTTTAA — within error, 0.977 ± 0.052
- TGGTTTTTGA — within error, 0.988 ± 0.038
- TGTAAAAAAA — within error, 1.04 ± 0.044
- TGTAAAACTA — within error, 1.02 ± 0.028
- TGTAAAGGGT — within error, 0.9778 ± 0.0084
- TGTAAATTTT — within error, 1.03 ± 0.041
- TGTAACTTGC — higher, 1.077 ± 0.0036
- TGTAAGAAAA — within error, 0.985 ± 0.052
- TGTAAGAGCG — within error, 0.9934 ± 0.0022
- TGTAAGCTAG — within error, 1.017 ± 0.0066
- TGTAAGGGAA — within error, 1.01 ± 0.018
- TGTAAGGTCG — within error, 1.013 ± 0.01
- TGTAAGGTGA — within error, 1.03 ± 0.022
- TGTAAGTATT — within error, 1.02 ± 0.018
- TGTAATTACA — within error, 1.003 ± 0.0061
- TGTAATTTCG — within error, 1.03 ± 0.04
- TGTAATTTTC — within error, 1.05 ± 0.12
- TGTACAAAAT — within error, 0.986 ± 0.047
- TGTACCGTGC — within error, 1.07 ± 0.068
- TGTACGAGAA — within error, 1.003 ± 0.0035
- TGTACGGGGT — within error, 1.01 ± 0.021
- TGTACTAGGG — within error, 1.001 ± 0.0069
- TGTAGAAAGG — within error, 1.03 ± 0.046
- TGTAGACTGA — within error, 1.01 ± 0.011
- TGTAGAGCCA — within error, 1.03 ± 0.035
- TGTAGCAGGG — higher, 1.12 ± 0.043
- TGTAGGCGGC — within error, 1.02 ± 0.015
- TGTAGTGTTG — within error, 1 ± 0.043
- TGTAGTTTGG — within error, 1.02 ± 0.032
- TGTATATTTT — within error, 0.98 ± 0.021
- TGTATGAACT — within error, 0.98027 ± 3.7e-05
- TGTATTAAGG — within error, 1.01 ± 0.036
- TGTATTATGG — within error, 0.968 ± 0.0097
- TGTATTGAAC — within error, 1.03 ± 0.0024
- TGTATTGTGG — within error, 0.987 ± 0.021
- TGTATTTGGC — lower, 0.914 ± 0.044
- TGTATTTTTA — within error, 1.01 ± 0.029
- TGTCAGTTGG — within error, 1.02 ± 0.06
- TGTCCATGGG — within error, 1.013 ± 0.0047
- TGTCCCAAGC — higher, 1.18 ± 0.03
- TGTCCGTTGG — within error, 1.05 ± 0.084
- TGTCCGTTTG — within error, 1.01 ± 0.023
- TGTCCTAAAA — within error, 1.05 ± 0.04
- TGTCCTCAAT — higher, 1.22 ± 0.02
- TGTCGCTGGG — within error, 1.02 ± 0.01
- TGTCGGCGGT — within error, 1.05 ± 0.065
- TGTCGGGGTA — within error, 0.995 ± 0.016
- TGTCGTGTTT — within error, 0.9679 ± 0.0014
- TGTCGTTGGG — within error, 0.9566 ± 0.0035
- TGTGAAAAGT — within error, 0.996 ± 0.028
- TGTGAAAATT — within error, 1.01 ± 0.051
- TGTGAAACCT — within error, 1.95 ± 1.2
- TGTGACCGAA — within error, 0.9794 ± 0.0017
- TGTGACGGGA — higher, 1.091 ± 0.0051
- TGTGAGGCGC — within error, 1 ± 0.044
- TGTGAGGCTA — within error, 1.03 ± 0.012
- TGTGAGTGTA — within error, 1.01 ± 0.025
- TGTGATGCTG — within error, 1.02 ± 0.044
- TGTGATTGTT — within error, 1.02 ± 0.013
- TGTGATTTTC — within error, 1.01 ± 0.016
- TGTGCAAAGG — the same, 0.997 ± 0.042
- TGTGCGTGAG — within error, 0.9776 ± 0.0015
- TGTGCTATTT — within error, 1.09 ± 0.17
- TGTGCTTGGG — within error, 1.04 ± 0.027
